Measured values published in PMC11342145.

How the values were obtained:
Grb7 = Grb7 (UniProt Q03160); assay: fragment AP-MS, label-free quantification; conditions: reference: YYYS fragment
Pik3r1 [1] = target: Pik3r1 (UniProt P26450); assay: fragment affinity purification, western blot
Grb2 [2] = target: Grb2 (UniProt Q60631); assay: fragment affinity purification, western blot; conditions: reference: YYYS fragment; sites Y239,Y240
Pik3r1 [3] = target: Pik3r1 (UniProt P26450); assay: fragment AP-MS, label-free quantification
Arhgef5 = Arhgef5 (UniProt E9Q7D5); assay: fragment AP-MS, label-free quantification; conditions: reference: YYYS fragment; sites Y239,Y240
Grb2 [4] = target: Grb2 (UniProt Q60631); assay: fragment AP-MS, label-free quantification; conditions: reference: YYYS fragment; sites Y239,Y240
Ubash3b (Sts1) [5] = target: Ubash3b (Sts1) (UniProt Q8BGG7); assay: fragment affinity purification, western blot; conditions: reference: pYpYYS fragment; sites Y313,S335
Plcg1 [6] = target: Plcg1 (UniProt Q62077); assay: fragment affinity purification, western blot; conditions: reference: pYpYYS fragment; sites Y313,S335
Ubash3b (Sts1) [7] = target: Ubash3b (Sts1) (UniProt Q8BGG7); assay: fragment AP-MS, label-free quantification
Plcg1 [8] = target: Plcg1 (UniProt Q62077); assay: fragment AP-MS, label-free quantification
[9] = reference: YYYS fragment, sites Y239,Y240
[10] = reference: pYpYYS fragment, sites Y313,S335
[11] = reference: YYYS fragment, sites Y239,Y240,Y313,S335

Measured: binding against the reference

Sequence of UniProt P26450 (P26450 whole entry, looked up, the tested form may be a part): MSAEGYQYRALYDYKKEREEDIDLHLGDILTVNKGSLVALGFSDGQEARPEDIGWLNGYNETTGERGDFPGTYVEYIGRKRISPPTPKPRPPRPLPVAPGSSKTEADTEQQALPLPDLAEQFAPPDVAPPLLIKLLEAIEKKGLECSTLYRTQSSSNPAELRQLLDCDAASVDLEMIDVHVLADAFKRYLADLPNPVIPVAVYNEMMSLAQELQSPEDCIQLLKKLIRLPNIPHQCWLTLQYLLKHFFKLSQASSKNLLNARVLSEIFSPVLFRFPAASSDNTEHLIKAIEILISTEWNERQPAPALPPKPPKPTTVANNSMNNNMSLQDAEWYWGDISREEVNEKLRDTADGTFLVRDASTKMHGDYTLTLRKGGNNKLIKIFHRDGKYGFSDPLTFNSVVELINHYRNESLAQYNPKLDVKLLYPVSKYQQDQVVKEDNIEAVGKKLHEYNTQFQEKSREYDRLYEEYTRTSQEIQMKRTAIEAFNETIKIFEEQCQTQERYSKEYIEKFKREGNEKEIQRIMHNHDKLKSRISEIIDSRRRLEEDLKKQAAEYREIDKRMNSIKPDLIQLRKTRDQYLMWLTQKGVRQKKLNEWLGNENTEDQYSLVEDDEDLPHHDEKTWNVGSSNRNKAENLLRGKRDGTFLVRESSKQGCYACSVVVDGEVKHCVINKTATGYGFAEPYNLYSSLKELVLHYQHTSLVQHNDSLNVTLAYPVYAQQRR
Sequence of UniProt Q8BGG7 (Q8BGG7 whole entry, looked up, the tested form may be a part): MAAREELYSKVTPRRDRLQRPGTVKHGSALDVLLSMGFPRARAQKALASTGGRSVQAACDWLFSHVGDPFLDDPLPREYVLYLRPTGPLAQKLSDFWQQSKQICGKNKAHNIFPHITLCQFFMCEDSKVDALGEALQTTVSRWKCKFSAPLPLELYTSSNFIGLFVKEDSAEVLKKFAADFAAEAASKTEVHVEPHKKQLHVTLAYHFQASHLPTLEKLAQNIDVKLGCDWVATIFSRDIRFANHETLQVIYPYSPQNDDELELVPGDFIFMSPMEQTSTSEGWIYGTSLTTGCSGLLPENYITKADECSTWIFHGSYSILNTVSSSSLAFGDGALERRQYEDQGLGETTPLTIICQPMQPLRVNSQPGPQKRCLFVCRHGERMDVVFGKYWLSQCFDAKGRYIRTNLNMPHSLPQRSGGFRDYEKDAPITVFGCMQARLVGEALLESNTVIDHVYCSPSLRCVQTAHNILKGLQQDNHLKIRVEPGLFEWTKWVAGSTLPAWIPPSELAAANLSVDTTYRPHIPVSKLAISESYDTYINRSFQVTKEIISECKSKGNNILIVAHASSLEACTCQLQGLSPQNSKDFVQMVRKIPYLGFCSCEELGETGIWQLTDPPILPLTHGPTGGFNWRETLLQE
Sequence of UniProt Q62077 (Q62077 whole entry, looked up, the tested form may be a part): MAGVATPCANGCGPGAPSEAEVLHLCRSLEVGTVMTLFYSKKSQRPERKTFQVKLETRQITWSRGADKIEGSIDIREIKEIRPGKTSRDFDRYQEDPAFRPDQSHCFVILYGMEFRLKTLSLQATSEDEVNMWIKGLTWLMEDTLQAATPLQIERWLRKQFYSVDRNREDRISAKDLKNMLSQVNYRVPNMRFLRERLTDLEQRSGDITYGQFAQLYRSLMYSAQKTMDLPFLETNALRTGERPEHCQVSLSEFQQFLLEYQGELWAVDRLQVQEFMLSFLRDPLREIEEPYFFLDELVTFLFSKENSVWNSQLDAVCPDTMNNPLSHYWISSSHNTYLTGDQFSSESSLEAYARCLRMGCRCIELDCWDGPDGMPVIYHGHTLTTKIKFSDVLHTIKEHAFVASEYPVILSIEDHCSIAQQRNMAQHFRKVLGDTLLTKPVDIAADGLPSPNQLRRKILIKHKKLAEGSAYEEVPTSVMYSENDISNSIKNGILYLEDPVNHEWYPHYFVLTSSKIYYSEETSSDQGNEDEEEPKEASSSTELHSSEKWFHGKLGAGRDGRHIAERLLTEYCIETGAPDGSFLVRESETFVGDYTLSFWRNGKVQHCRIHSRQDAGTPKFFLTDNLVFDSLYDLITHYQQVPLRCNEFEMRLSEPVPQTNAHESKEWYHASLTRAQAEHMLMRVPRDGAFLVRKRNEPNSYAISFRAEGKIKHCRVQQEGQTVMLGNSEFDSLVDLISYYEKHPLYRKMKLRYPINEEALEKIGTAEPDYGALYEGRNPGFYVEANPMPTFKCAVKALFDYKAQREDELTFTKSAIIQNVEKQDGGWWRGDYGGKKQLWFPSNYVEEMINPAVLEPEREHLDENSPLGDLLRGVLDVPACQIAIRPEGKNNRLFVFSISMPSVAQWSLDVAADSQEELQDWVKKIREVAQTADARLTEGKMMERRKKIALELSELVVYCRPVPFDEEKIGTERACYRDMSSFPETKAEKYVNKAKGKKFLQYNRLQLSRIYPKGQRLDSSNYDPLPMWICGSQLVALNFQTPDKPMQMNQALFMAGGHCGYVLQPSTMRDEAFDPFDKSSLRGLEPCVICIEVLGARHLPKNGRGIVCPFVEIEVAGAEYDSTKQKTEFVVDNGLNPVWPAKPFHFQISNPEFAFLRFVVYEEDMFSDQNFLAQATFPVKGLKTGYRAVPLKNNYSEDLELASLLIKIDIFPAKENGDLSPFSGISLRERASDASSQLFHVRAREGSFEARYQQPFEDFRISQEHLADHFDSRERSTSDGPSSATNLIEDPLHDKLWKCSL
Sequence of UniProt Q03160 (Q03160 whole entry, looked up, the tested form may be a part): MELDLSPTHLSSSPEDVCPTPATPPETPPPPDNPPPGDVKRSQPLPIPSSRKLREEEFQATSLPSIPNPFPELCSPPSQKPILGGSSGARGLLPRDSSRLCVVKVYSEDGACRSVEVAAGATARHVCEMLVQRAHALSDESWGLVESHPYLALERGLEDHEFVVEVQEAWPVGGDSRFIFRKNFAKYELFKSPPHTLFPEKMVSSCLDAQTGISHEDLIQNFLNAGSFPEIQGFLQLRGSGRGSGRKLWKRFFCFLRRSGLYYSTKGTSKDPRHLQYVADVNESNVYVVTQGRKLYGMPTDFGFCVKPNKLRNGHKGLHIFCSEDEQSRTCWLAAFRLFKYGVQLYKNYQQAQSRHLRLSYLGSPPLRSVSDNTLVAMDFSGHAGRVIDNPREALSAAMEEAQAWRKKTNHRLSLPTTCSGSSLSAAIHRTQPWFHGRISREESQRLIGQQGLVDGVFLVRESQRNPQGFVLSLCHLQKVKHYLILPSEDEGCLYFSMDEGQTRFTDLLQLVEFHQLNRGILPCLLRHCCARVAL
Sequence of UniProt E9Q7D5 (E9Q7D5 whole entry, looked up, the tested form may be a part): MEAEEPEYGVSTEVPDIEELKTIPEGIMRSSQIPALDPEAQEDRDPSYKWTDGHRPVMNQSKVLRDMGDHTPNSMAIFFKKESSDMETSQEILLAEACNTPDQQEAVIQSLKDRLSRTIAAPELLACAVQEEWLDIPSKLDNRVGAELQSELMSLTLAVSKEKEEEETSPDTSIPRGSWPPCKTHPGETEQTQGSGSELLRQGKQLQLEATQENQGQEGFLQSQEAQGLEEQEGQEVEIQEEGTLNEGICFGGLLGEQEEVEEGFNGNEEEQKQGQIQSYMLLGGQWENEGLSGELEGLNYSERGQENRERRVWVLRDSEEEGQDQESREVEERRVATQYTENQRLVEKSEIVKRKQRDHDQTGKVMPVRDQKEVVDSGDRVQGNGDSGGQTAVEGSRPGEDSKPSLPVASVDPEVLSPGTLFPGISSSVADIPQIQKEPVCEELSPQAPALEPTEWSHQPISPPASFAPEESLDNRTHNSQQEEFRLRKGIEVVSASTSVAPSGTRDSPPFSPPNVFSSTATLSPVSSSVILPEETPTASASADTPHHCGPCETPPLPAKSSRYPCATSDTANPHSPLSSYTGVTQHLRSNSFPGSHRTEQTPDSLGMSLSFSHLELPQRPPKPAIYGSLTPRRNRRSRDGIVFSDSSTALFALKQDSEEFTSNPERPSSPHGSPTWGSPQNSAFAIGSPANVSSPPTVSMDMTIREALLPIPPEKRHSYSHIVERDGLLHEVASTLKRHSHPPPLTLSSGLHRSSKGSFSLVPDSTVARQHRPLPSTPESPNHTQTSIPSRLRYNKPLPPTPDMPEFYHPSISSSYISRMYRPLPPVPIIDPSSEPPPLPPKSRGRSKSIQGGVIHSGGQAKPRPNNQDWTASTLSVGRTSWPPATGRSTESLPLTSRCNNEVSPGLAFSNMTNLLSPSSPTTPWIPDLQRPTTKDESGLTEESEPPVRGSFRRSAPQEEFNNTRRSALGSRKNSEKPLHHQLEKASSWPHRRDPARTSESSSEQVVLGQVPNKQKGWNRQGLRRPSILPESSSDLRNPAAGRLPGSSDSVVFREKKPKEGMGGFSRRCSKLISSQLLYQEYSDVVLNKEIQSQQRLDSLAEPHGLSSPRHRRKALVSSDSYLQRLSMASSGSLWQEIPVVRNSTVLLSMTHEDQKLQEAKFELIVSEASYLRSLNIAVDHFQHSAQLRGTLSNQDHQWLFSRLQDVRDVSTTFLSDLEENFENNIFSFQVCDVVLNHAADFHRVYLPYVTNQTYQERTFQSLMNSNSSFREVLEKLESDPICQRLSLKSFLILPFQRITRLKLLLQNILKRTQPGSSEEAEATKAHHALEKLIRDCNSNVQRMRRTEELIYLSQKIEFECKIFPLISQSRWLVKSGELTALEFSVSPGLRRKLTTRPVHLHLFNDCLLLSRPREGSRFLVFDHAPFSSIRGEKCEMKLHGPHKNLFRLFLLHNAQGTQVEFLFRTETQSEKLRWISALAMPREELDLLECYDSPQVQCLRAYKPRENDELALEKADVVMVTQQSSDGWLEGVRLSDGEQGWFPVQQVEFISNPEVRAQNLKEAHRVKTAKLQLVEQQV

Shc1 (p52Shc1) CH1 region, 107 residues (from UniProt P98083-2) pYYYS fragment
stronger: Grb7; sites Y239

Shc1 (p52Shc1) CH1 region, 107 residues (from UniProt P98083-2) pYpYYS fragment
stronger: Pik3r1 [1]; [9] | Grb2 [2] | Pik3r1 [3]; [9] | Arhgef5 | Grb2 [4] | Grb7; sites Y239,Y240

Shc1 (p52Shc1) CH1 region, 107 residues (from UniProt P98083-2) pYpYpYpS fragment
stronger: Pik3r1 [1]; [10] | Ubash3b (Sts1) [5] | Plcg1 [6] | Pik3r1 [3]; [10] | Ubash3b (Sts1) [7]; [11] | Ubash3b (Sts1) [7]; [10] | Plcg1 [8]; [11] | Plcg1 [8]; [10]
